Holding throughout (assay): antigen assigned by the filing's classifying and identification method; details for this clone not given
The target of test [1] is T1, CD46 antigen (Homo sapiens (Human), UniProt P15529 35-392).
T1 construct: Native protein on cancer cell lines; also called MCP (Membrane Co-factor Protein); gp45-70
T1 sequence: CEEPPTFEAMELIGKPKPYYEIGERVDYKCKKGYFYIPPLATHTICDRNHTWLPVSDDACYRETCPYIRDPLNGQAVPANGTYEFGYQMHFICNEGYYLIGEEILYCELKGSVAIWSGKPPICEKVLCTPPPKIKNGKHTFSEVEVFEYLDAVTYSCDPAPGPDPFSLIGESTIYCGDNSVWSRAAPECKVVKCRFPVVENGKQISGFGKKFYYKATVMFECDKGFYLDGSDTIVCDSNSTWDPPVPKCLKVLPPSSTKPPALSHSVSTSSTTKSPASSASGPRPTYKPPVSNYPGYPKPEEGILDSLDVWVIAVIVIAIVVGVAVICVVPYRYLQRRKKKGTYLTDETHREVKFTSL

Test [2] concerns the target T2, IgSF4 (immunoglobulin superfamily member 4) (Homo sapiens, UniProt Q9BY67 45-442).
T2 construct: Native protein on cancer cell lines; also called BL2; ST17
T2 sequence: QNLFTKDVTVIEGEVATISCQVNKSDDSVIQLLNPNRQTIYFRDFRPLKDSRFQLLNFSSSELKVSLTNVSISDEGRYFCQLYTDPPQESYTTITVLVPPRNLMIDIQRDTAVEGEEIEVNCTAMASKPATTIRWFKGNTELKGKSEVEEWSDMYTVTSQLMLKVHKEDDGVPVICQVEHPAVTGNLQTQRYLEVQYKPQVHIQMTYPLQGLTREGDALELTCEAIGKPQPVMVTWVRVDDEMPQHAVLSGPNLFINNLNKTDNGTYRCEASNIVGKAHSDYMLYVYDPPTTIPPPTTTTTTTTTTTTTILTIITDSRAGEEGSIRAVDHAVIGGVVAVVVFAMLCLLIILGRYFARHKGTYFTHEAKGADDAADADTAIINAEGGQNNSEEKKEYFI

The target of test [3] is T3, CD73 (Homo sapiens (Human), UniProt P21589 27-549, limits assumed).
T3 construct: also called 5-prime-ribonucleotide phosphohydrolase
T3 sequence: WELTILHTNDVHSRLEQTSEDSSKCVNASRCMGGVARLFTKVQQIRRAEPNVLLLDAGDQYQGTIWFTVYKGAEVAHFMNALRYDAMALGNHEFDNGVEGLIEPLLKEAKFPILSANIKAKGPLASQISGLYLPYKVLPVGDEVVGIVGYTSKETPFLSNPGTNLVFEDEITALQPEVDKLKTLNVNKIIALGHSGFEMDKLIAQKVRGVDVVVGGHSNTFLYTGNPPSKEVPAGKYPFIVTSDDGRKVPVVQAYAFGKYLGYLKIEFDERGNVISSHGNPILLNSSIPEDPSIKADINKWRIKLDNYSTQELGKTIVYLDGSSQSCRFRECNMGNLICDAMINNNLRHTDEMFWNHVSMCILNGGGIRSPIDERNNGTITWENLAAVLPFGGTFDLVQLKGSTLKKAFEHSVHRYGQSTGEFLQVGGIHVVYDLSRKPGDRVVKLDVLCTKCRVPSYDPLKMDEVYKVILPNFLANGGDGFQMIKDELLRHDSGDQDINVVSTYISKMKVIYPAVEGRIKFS

In test [4] the target is T4, EpCAM (Homo sapiens (Human), UniProt P16422 24-314).
T4 chain: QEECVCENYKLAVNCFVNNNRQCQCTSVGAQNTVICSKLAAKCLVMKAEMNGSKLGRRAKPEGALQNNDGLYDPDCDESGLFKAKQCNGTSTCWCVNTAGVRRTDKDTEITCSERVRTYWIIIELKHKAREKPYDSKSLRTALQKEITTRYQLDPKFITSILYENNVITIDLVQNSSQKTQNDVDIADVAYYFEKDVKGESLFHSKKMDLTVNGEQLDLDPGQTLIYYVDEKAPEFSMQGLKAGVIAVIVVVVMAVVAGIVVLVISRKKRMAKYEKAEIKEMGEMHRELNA

In test [5] the target is T5, BCAM (basal cell adhesion molecule) (Lutheran blood group) (Homo sapiens (Human), UniProt P50895 32-628, limits assumed).
T5 construct: also called CD239 antigen
T5 sequence: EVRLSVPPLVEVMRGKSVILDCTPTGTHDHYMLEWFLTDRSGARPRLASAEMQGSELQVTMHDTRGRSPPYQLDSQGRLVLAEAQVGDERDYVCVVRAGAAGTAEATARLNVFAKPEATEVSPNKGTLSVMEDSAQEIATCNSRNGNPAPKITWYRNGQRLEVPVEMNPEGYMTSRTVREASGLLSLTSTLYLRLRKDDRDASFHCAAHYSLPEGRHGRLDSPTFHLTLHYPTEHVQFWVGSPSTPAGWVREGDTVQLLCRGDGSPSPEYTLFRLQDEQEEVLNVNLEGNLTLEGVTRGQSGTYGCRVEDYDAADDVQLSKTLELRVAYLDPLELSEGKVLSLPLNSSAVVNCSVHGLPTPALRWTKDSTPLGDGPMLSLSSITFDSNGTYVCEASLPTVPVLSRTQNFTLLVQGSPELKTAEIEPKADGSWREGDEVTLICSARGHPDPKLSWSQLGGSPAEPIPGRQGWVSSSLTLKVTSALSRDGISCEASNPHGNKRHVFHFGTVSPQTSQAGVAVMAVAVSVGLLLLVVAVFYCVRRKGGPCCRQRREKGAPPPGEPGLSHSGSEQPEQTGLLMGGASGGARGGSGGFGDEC

B1: 066-069 antibody (antibody, V domains shown)
VH: QVQLVQSEAEVKKPGESLKISCKGSGYSFTSYWIGWVRQMPGKGLEWMGIIYPGDSDTRYSPSFQGQVTISADKSISTAYLQWSSLKASDTAMYYCARTIGLGAFDIWGQGTTVTVSR
VL: SSELTQDPAVSVALGQTVRITCQGDSLRSYYASWYQQKPGQAPVLVIYGKNNRPSGIPDRFSGSSSGNTASLTITGAQAEDEADYYCNSRDSSGNHHYVFGTGTKVTVLG
notes: Clone of the scFv-CL-cp3 phage library
B1: in test [1], the binding result is reported as “binds”.

B2: 076-048 antibody (antibody, V domains shown)
VH: QVQLVQSGAEVKKPGSSVKVSCRASGGTFSSYAISWVRQAPGQGLEWMGGIIPIFGTANYAQKFQGRVTITADKSTSTAYMELSSLRSEDTAVYYCAGDISRGSSWYGYYFDYWGQGTLVTVSR
VL: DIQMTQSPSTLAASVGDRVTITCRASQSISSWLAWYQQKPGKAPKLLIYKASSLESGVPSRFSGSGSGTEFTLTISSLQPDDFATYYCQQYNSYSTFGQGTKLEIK
notes: as for B1
Regarding B2, the binding result in test [2] is “binds”.

B3: 067-213 antibody (antibody, V domains shown)
VH: EVQLVESGGGLVQPGRSLRLSCAASGFTFDDYAMHWVRQAPGKGLEWVSGISWNSGSIGYADSVKGRFTISRDNAKNSLYLQMNSLRAEDTALYYCVRSGSYNYYYYGMDVWGQGTTVTVSR
VL: not shown
notes: as for B1
B3: in test [3], the binding result is on record as “binds”.

B4: 067-153 antibody (antibody, V domains shown)
VH: QVQLQESGGGLVQPGGSLRLSCTTSGFTFTSYAMSWVRQAPGKGLEWVSSISGSGGITYYADSVKGRFTISRDNSKNTLYLQMNSLRAEDTAVYYCAKDRVLVPASSSYFDYWGQGTLVTVSR
VL: SSELTQDPAVSVALGQTVRITCQGDSLRSYYASWYQQKPGQAPVLVIYGKNNRPSGIPDRFSGSSSGNTASLTITGAQAEDEADYYCNSRDSSGNHVVFGGGTKLTVLG
notes: as for B1
For B4, in test [4], the binding result is “binds”.

B5: 067-024 antibody (antibody, V domains shown)
VH: QVQLVQSGAEVKKPGASVKVSCKASGYTFTSYYMHWVRQAPGQGLEWMGIINPSGGSTSYAQKFQGRVTMTRDTSTSTVYMELSSLRSEDTAVYYCARAKRRGSAFDIWGQGTTVTVSR
VL: SSELTQDPAVSVALGQTVRITCQGDSLRSYYASWYQQKPGQAPVLVIYGKNNRPSGIPDRFSGSSSGNTASLTITGAQAEDEADYYCNSRDSSGNHVVFGGGTKLTVLG
notes: as for B1
Take B5: in test [5], the binding result was “binds”.
